Reference: patent publication US8734776B2 (ZymoGenetics, Inc., priority 2003, dated 2014)
Where two headings read alike, the source gives them in different places.

How the values were obtained:
[1] = tested on: IL-28RA mRNA; assay: Semi-quantitative RT-PCR of IL-28RA, IFNAR2 and CRF2-4 mRNA; format: cell-based, human; conditions: HepG2 cells + cytokine
Description: In order to further examine the mRNA distribution for IL-28RA, semi-quantitative RT-PCR was performed using the SDS 7900HT system (Applied Biosystems, CA). One-step RT-PCR was performed using 100 ng total RNA for each sample and gene-specific primers. A standard curve was generated for each primer set using Bjab RNA and all sample values were normalized to HPRT. The normalized values for IFNAR2 and CRF2-4 are also shown.

[2] = tested on: HCV replicon; conditions: replicon clones; IFNα at 10 IU/ml; cited from earlier work
[3] = tested on: Human Daudi cells; assay: Daudi cell proliferation (Alamar Blue); format: cell-based; conditions: 1000 ng/ml to 0.5 ng/ml; 72 h
Description: Human Daudi cells were suspended in RPMI+10% FBS at 50,000 cells/milliliter and 5000 cells were plated per well in a 96 well plate. […] IL-29-CEE was used at a concentration range of from 1000 ng/ml to 0.5 ng/ml. […] IFN-α2a was used at a concentration range of from 62 ng/ml to 0.03 ng/ml. Cells were incubated for 72 h at 37° C. […] Plates were farther incubated at 37° C., 5% CO2, for 24 hours.

[4] = tested on: human peripheral blood mononuclear cells; assay: Induction of IL-28A, IL-29, IL-28B RNA in PBMCs by poly I:C and viral infection; conditions: poly I:C 100 μg/ml, 15 h
[5] = tested on: encephelomyocarditis virus; assay: Antiviral assay: cytopathic effect in HeLa cells; format: cell-based, human
[6] = tested on: encephelomyocarditis virus; assay: Antiviral assay: cytopathic effect in L929 cells; format: cell-based, mouse
[7] = tested on: human Daudi B lymphoid cells; assay: Induction of interferon-stimulated genes in Daudi cells (RT-PCR); format: cell-based; conditions: 72 hours, conditioned medium from Sf9 cells
Excerpt: Interaction of type 1 interferons with their specific receptor leads to induction of a number of genes responsible for their antiviral/antiproliferative activity. These include 2′-5′ oligoadenylate synthetase (2-OAS), double-stranded RNA dependent Pkr kinase (Pkr), phospholipid scramblase, and intercellular adhesion molecule-1 (ICAM-1). Induction of genes with as yet unknown function, such as a 56 kDa interferon stimulated gene product (ISG-56k), also occurs. […] Conditioned medium from Sf9 cells infected with wild-type baculovirus was used as a negative control. Following treatment cells were collected and lysed for isolation of total RNA. One microgram of total RNA was converted to cDNA using reverse transcriptase and used as a template for polymerase chain reaction using oligonucleotide primers specific for the human interferon-stimulated genes described above. Oligonucleotide primers for human […] (G3PDH) were used as a non-interferon stimulated gene control.

[8] = tested on: BVDV; assay: BVDV CPE inhibition assay in MDBK cells; format: cell-based; conditions: MDBK bovine kidney cells
Description: IFNα and RIBAVIRIN® were used as positive controls. Test sample were added at the time of viral infection.

[9] = tested on: ISG gene expression (OAS, Pkr, Mx1); assay: ISG gene induction in liver, spleen and blood of injected mice; format: in vivo, mouse; conditions: C57BL/6 mice; i.p or i.v; 10 μg-250 μg
Description: In addition, E. coli derived IL-29 was also tested in in vivo assays as described above using MetIL-29C172S-PEG and MetIL-29-PEG. At various time points and at different doses, ISG gene induction was measured in the blood, spleen and livers of the mice.
Mice were sacrificed at various time points (1 hr-48 hr). Spleens and livers were isolated from mice, and RNA was isolated. RNA was also isolated from the blood cells. The cells were pelleted and RNA isolated from pellets using RNAEasy®-kit (Qiagen). RNA was treated with DNase (Amicon) to rid RNA of any contaminating DNA. cDNA was generated using Perkin-Elmer RT mix (Perkin-Elmer). ISG gene induction was measured by real-time PCR using primers and probes specific for mouse OAS, Pkr and M×1. To obtain quantitative data, HPRT real-time PCR was duplexed with ISG PCR. A standard curve was calculated using known amounts of IFN-stimulated mouse PBLs. All data are shown as expression relative to internal HPRT expression.
Results shown are fold expression relative to HPRT gene expression. […] The data shown is the average expression from 5 different animals/group.
Data shown is fold expression over HPRT expression from livers of mice. Similar data was obtained from blood and spleens of mice.

[10] = tested on: adenovirus; format: cell-based; conditions: A549 cells
[11] = tested on: parainfluenza virus; format: cell-based; conditions: MA-104 cells
[12] = tested on: respiratory syncytial virus; format: cell-based; conditions: MA-104 cells
[13] = tested on: rhino virus; format: cell-based
[14] = tested on: coxsackie virus; format: cell-based; conditions: Coxsackie B4 virus, KB cells
[15] = tested on: influenza virus; format: cell-based; conditions: Influenza (type A [H3N2])
[16] = tested on: vaccinia virus; format: cell-based; conditions: Vero cells
[17] = tested on: west nile virus; format: cell-based; conditions: Vero cells
[18] = tested on: dengue virus; format: cell-based; conditions: Vero cells
[19] = tested on: venezuelan equine encephalitis virus; format: cell-based; conditions: Vero cells
[20] = tested on: pichinde virus; format: cell-based
[21] = tested on: polio virus; format: cell-based; conditions: Vero cells
[22] = tested on: adenovirus; format: cell-based; conditions: A549 cells; remark: listed apart in the source
[23] = tested on: parainfluenza virus; format: cell-based; conditions: MA-104 cells; remark: listed apart in the source
[24] = tested on: respiratory syncytial virus; format: cell-based; conditions: MA-104 cells; remark: listed apart in the source
[25] = tested on: rhino virus; format: cell-based; remark: listed apart in the source
[26] = tested on: coxsackie virus; format: cell-based; conditions: Coxsackie B4 virus, KB cells; remark: listed apart in the source
[27] = tested on: influenza virus; format: cell-based; conditions: Influenza (type A [H3N2]); remark: listed apart in the source
[28] = tested on: vaccinia virus; format: cell-based; conditions: Vero cells; remark: listed apart in the source
[29] = tested on: west nile virus; format: cell-based; conditions: Vero cells; remark: listed apart in the source
[30] = tested on: dengue virus; format: cell-based; conditions: Vero cells; remark: listed apart in the source
[31] = tested on: venezuelan equine encephalitis virus; format: cell-based; conditions: Vero cells; remark: listed apart in the source
[32] = tested on: pichinde virus; format: cell-based; remark: listed apart in the source
[33] = tested on: polio virus; format: cell-based; conditions: Vero cells; remark: listed apart in the source
[34] = tested on: BCBL-1 cells
[35] = tested on: OAS; assay: OAS activity in serum and plasma of mice (RIA); conditions: C57BL/6 mice; i.v; 10 μg-250 μg
[36] = tested on: HHV-8; assay: HHV-8 replication in BCBL-1 cells (TaqMan PCR)
[37] = Maden-Darby Canine Kidney cells

## IFNα [reference compound]
[1]
  CRF2-4 mRNA normalized to HPRT: 3.05
  IFNAR2 mRNA normalized to HPRT: 3.00
  IL-28RA mRNA normalized to HPRT: 2.61
[2]
  reduction of the amount of HCV RNA compared to untreated control cell lines: 85%

## IL-29-CEE: IL-29 conjugated with glu tag
[3]
  effect on proliferation of Daudi cells: no significant effect

## polyinosinic acid-polycytidylic acid [poly I:C]
[4]
  amount of IL-28A, IL-29, IL-28B RNA: increased

B1: IL-28A: human IL-28A, previously designated zcyto20, SEQ ID NO:2 (protein, listed as Homo sapiens)
chain: MKLDMTGDCTPVLVLMAAVLTVTGAVPVARLHGALPDARGCHIAQFKSLSPQELQAFKRAKDALEESLLLKDCRCHSRLFPRTWDLRQLQVRERPMALEAELALTLKVLEATADTDPALVDVLDQPLHTLHHILSQFRACIQPQPTAGPRTRGRLHHWLYRLQEAPKKESPGCLEASVTFNLFRLLTRDLNCVASGDLCV
modifications: SIGNAL (1)...(25)
[5]; relative CM concentration .008X
  Percentage Cytopathic Effect: 10%
[5]; relative CM concentration .0156X
  Percentage Cytopathic Effect: 2.5%
[5]; relative CM concentration .0325X
  Percentage Cytopathic Effect: 5%
[5]; relative CM concentration .0625X
  Percentage Cytopathic Effect: 2.5%
[5]; relative CM concentration .125X
  Percentage Cytopathic Effect: 0%
[5]; relative CM concentration .25X
  Percentage Cytopathic Effect: 0%
[5]; relative CM concentration .5X
  Percentage Cytopathic Effect: 0%
[6]; relative CM conc. .008X
  Percentage Cytopathic Effect: 87%
[6]; relative CM conc. .0156X
  Percentage Cytopathic Effect: 87%
[6]; relative CM conc. .0325X
  Percentage Cytopathic Effect: 87%
[6]; relative CM conc. .0625X
  Percentage Cytopathic Effect: 87%
[6]; relative CM conc. .125X
  Percentage Cytopathic Effect: 87%
[6]; relative CM conc. .25X
  Percentage Cytopathic Effect: 87%
[6]; relative CM conc. .5X
  Percentage Cytopathic Effect: 87%
[7]
  induction of ICAM-1: No induction
  induction of ISG-56k, Pkr, 2-5 OAS and phospholipid scramblase: clear induction
[8]
  IC50 inhibition of cell death induced by BVDV: 0.02 µg/mL
[9]
  ISG gene expression (OAS, Pkr, Mx1) in the livers, spleen and blood of mice: did not induce ISG gene expression
[10]
  EC50 Visual: >10 µg/mL
  IC50 Visual: >10 µg/mL
[11]
  EC50 Visual: >10 µg/mL
  IC50 Visual: >10 µg/mL
[12]
  EC50 Visual: >10 µg/mL
  IC50 Visual: >10 µg/mL
[13]; Rhino 2, KB cells
  EC50 Visual: >10 µg/mL
  IC50 Visual: >10 µg/mL
[13]; Rhino 9, HeLa cells
  EC50 Visual: >10 µg/mL
  IC50 Visual: >10 µg/mL
[14]
  EC50 Visual: >10 µg/mL
  IC50 Visual: >10 µg/mL
[15]; [37]
  EC50 Visual: >10 µg/mL
  IC50 Visual: >10 µg/mL
[15]; Vero cells
  EC50 Visual: 0.1 µg/mL
  IC50 Visual: >10 µg/mL
[16]
  EC50 Visual: >10 µg/mL
  IC50 Visual: >10 µg/mL
[17]
  EC50 Visual: 0.01 ng/mL
  IC50 Visual: >10 µg/mL
[18]
  EC50 Visual: 0.01 µg/mL
  IC50 Visual: >10 µg/mL
[19]
  EC50 Visual: 0.01 µg/mL
  IC50 Visual: >10 µg/mL
[20]
  EC50 Visual: >10 µg/mL
  IC50 Visual: >10 µg/mL
[21]
  EC50 Visual: >10 µg/mL
  IC50 Visual: >10 µg/mL
[22]
  EC50 NR: >10 µg/mL
  IC50 NR: >10 µg/mL
[23]
  EC50 NR: >10 µg/mL
  IC50 NR: >10 µg/mL
[24]
  EC50 NR: >10 µg/mL
  IC50 NR: >10 µg/mL
[25]; Rhino 2, KB cells
  EC50 NR: >10 µg/mL
  IC50 NR: >10 µg/mL
[25]; Rhino 9, HeLa cells
  EC50 NR: 1.726 µg/mL
  IC50 NR: >10 µg/mL
[26]
  EC50 NR: >10 µg/mL
  IC50 NR: >10 µg/mL
[27]; [37]
  EC50 NR: >10 µg/mL
  IC50 NR: >10 µg/mL
[27]; Vero cells
  EC50 NR: 0.25 µg/mL
  IC50 NR: >10 µg/mL
[28]
  EC50 NR: >10 µg/mL
  IC50 NR: >10 µg/mL
[29]
  EC50 NR: 0.1 ng/mL
  IC50 NR: >10 µg/mL
[30]
  EC50 NR: 0.1 µg/mL
  IC50 NR: >10 µg/mL
[31]
  EC50 NR: 0.035 µg/mL
  IC50 NR: >10 µg/mL
[32]
  EC50 NR: >10 µg/mL
  IC50 NR: >10 µg/mL
[33]
  EC50 NR: >1.672 µg/mL
  IC50 NR: >10 µg/mL
[34]
  TC50: > 10 µg/mL
[35]
  OAS activity in the serum and plasma of mice: induced OAS activity
[36]
  TI (TC50/IC50): > 10
[36]; extracellular HHV-8 DNA
  IC50 HHV-8 viral replication: 1 µg/mL
